One assay has as its system FaDu cells. As to the kind of experiment: Tumor tissue penetration of co-administered doxorubicin (IHC). Type of assay: in vivo, Balb/c nude mice. The settings on record: doxorubicin 10 mg/kg with 2.5 mg/kg PBS, Fc or Fc-TPP11 intravenously, 1 hour. The method, then: In order to examine tumor tissue penetration of a small-molecule drug co-administered with the Fc-TPP11 constructed in the above-described experiment, immunohistochemistry was performed. Specifically, each of Balb/c nude mice was injected subcutaneously with 5×10^6 FaDu cells, and after about 15 days, when the tumor volume reached about 300 to 400 mm^3, 10 mg/kg of the anticancer drug doxorubicin and 2.5 mg/kg of each of PBS, Fc and Fc-TPP11 were injected intravenously into each mouse. At 1 hour after injection, the mouse heart was perfused with PBS and perfused with 4% para-formaldehyde to fix tissue. Next, the tumor tissue was extracted and subjected to immunohistochemistry. The extracted tumor was sectioned to a thickness of 20 μm by a frozen-section method, and the blood vessels were stained with the primary antibody CD31 (BD Pharmingen) and a FITC (green fluorescence)-labeled secondary antibody recognizing the same.
According to the same method as that used for FIG. 18(A), doxorubicin and each of PBS, Fc and Fc-TPP11 were injected intravenously into mice, and the mouse heart was perfused with PBS, and the tumor tissue was extracted. […] Then, the tissue was thawed at 37° C. and centrifuged, and the fluorescence (Excitation 485 nm/emission 528 nm) of the supernatant was measured to quantify the amount of doxorubicin penetrated.

Assay [1] relates to HUVEC cells. Description: Tube formation assay in HUVEC. Format: cell-based, human. The settings on record: VEGF165A 20 ng/ml, Fc-TPP11 1 μM, 8 hours. The method, then:
VEGF165A is known to […] angiogenesis using NRP1 as a co-receptor. Based on this, as a method capable of observing angiogenesis in vitro, a tube formation assay was performed. In an experimental method, 50 μl of ECMatrix was added to a 96-well plate and polymerized at 37° C. for 2 hours. After 2 hours, HUVEC cells were suspended in EBM2 medium, mixed with VEGF165A (20 ng/ml), Fc or Fc-TPP11 (1 μM), plated on the ECMatrix at a density of 1×10^4 cells per well, and incubated for 8 hours. The incubated cells were imaged with a microscope.

Another assay concerns VE-cadherin. As to the kind of experiment: Western blot of VE-cadherin in HUVEC. Type of assay: cell-based, human. The following applies: 10 minutes. The procedure:
Specifically, 5×10^5 HUVEC cells were seeded into each well of a 6-well plate and incubated for 24 hours, […] constant Fc region and the selected peptide that binds specifically to NRP1, for 10 minutes, followed by Western blot analysis. After SDS-PAGE, the gel was transferred to a PVDF membrane, and detection was performed using primary antibodies (SantaCruz) that recognize VE-cadherin and β-actin and using HRP-conjugated secondary antibody (SantaCruz), and analysis was performed using ImageQuant LAS4000 mini (GE Healthcare).

Assay [2] has as its system HUVEC cells. As to the kind of experiment: Wound healing assay (migration of vascular endothelial cells). The following applies: VEGF165A 20 ng/ml, 1 μM, 18 hours. Format: cell-based, human. The method, then: In addition to the results obtained in Examples 8(1) and 8(2), in order to examine the inhibitory activity of Fc-TPP11 against VEGF165A-induced migration of vascular endothelial cells, a wound healing assay was performed. In an experimental method, 5×10^5 HUVEC cells were seeded into each well of a 6-well plate, and then incubated in 0.5% serum EBM2 medium containing 1 μg/ml mitomycin c for 1 hour until the cells were saturated (95% or more) in the plate. The dish bottom was linearly rubbed with a yellow tip to make injury lines having a uniform width. Then, the cells were washed with PBS such that the cells were detached from the bottom. After removal of PBS, medium was added slowly to the HUVEC cells. The cells were treated with 0 or 20 ng/ml of VEGF165A, treated with each of Fc and Fc-TPP11 (1 μM), and then incubated under the conditions of 37° C. and 5% CO2. The cells were imaged with a microscope (Primo vert, Carl Zeiss co., Germany) at 0 hour and 18 hours, and the distance between both ends, measured with a computer program (AxioVision LE, Carl Zeiss co., Germany) included in the microscope, was statistically processed.

The subject of assay [3] is HUVEC cells. As to the kind of experiment: Transwell invasion assay of vascular endothelial cells. Format: cell-based, human. The settings on record: VEGF165A 20 ng/ml, 1 μM, 12 hours. The procedure:
Additionally, in order to examine the inhibitory activity of Fc-TPP11 against VEGF165A-induced invasion of vascular endothelial cells, a transwell assay was performed. A transwell (Corning Costar, USA) having a polycarbonate membrane with a […] pore size was used. Matrigel (Corning Costar, USA) was coated on the lower layer surface of the filter at a ratio of 1:10 and polymerized for 2 hours under the conditions of 37° C. and 5% CO2, and then 5×10^4 HUVEC cells and each of Fc and Fc-TPP11 (1 μM) were seeded in EBM2 medium in the upper layer well. In addition, EBM2 medium containing VEGF165A (20 ng/ml) was added to the lower layer well. Next, the cells were incubated for 12 hours under the conditions of 37° C. and 5% CO2, and then unmoved cells in the upper layer well were removed with cotton, and the cells were fixed with 4% para-formaldehyde. Then, the cells were stained with crystal violet.

In assay [4] the test system is human umbilical vein endothelial cells (HUVECs). Description: Transwell assay of penetration of vascular endothelial cells (dextran-FITC). The following applies: 1 μM for 30 minutes (VEGF165A about 1.3 nM); dextran-FITC fluorescence in lower chamber. Format: cell-based. The procedure: Specifically, 5×10^4 human umbilical vein endothelial cells (HUVECs) were seeded into the upper chamber of a transwell plate (Corning) and incubated in EGM2 for 3 days under the conditions of 37° C. and 5% CO2. […] Then, 50 μl of dextran-FITC (Sigma) was added to the upper chamber. After 30 minutes, based on the principle according to which the fluorescent substance would be observed when penetration into the vascular endothelial cells was increased, the medium was sampled from the lower chamber and the fluorescence thereof was measured.

As to `COc1cccc2c1C(=O)c1c(O)c3c(c(O)c1C2=O)C[C@@](O)(C(=O)CO)C[C@@H]3O[C@H]1C[C@H](N)[C@H](O)[C@H](C)O1` [doxorubicin], the “tumor tissue penetration of doxorubicin” value with FaDu cells is “little or no red fluorescence was observed”.

B1: VEGF165A: vascular endothelial cell growth factor-A, NRP1 ligand used as control (protein)
chain: APMAEGGGQNHHEVVKFMDVYQRSYCHPIETLVDIFQEYPDEIEYIFKPSCVPLMRCGGCCNDEGLECVPTEESNITMQIMRIKPHQGQHIGEMSFLQHNKCECRPKKDRARQENPCGPCSERRKHLFVQDPQTCKCSCKNTDSRCKARQLELNERTCRCDKPRR
Take B1: in the assay with HUVEC cells [1], the tube formation result is “tube formation increased”. Further, in the assay with VE-cadherin, the “change in VE-cadherin” value is “a decrease in VE-cadherin was observed”. The “migration activity of vascular endothelial cells” value in the assay with HUVEC cells [2] is listed as “increased the migration activity of vascular endothelial cells”. Also, the “invasion activity of vascular endothelial cells” value in the assay with HUVEC cells [3] was “increased the invasion activity of vascular endothelial cells”. Moreover, the “ability to penetrate vascular endothelial cells” value in assay [4] is “had an increased ability to penetrate vascular endothelial cells”.

The values are drawn from patent US10400022B2, “Neuropilin-1 specific binding peptide, fusion protein fused with same, and use thereof” (AJOU UNIVERSITY INDUSTRY-ACADEMIC COOPERATION FOUNDATION, priority 2015, dated 2019).
